# Measurements from patent publication US20040219163.
# Target: prostate-specific antigen (PSA) (UniProt P07288)
# Sequence (P07288 25-261): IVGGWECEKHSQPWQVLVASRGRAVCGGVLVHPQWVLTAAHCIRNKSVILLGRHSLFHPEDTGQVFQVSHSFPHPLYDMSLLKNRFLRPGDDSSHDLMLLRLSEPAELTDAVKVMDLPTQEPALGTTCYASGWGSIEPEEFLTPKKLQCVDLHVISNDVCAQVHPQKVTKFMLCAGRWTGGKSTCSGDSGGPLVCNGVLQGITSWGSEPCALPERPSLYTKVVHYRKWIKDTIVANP
substance,measurement,value
Human glandular kallikrein (hK2),PSA enzymatic activity on chromogenic substrate S-2586 (absorbance at 405 nm); 100 ng hK2 added to 2.5 ug PSA from L1/PSA/IL2 supernatant,The activity of PSA is increased 500% when incubated with hK2
